Assay results as given in patent US20130171170A1 (published 2013).

Assays:
[1] = target: T1, CD22 variant lacking domain 2 (Δ2), expressed on CHO cells (human, UniProt P20273 22-847); assay: flow cytometry on CHO cells expressing the CD22 deletion variant; goat anti-mouse IgG Alexa 488
T1 construct: Membrane protein on stably transformed CHO cells; Numbering of full length precursor CD22beta (Wilson et al. 1991); also called CD22 lacking domain 2
T1 chain: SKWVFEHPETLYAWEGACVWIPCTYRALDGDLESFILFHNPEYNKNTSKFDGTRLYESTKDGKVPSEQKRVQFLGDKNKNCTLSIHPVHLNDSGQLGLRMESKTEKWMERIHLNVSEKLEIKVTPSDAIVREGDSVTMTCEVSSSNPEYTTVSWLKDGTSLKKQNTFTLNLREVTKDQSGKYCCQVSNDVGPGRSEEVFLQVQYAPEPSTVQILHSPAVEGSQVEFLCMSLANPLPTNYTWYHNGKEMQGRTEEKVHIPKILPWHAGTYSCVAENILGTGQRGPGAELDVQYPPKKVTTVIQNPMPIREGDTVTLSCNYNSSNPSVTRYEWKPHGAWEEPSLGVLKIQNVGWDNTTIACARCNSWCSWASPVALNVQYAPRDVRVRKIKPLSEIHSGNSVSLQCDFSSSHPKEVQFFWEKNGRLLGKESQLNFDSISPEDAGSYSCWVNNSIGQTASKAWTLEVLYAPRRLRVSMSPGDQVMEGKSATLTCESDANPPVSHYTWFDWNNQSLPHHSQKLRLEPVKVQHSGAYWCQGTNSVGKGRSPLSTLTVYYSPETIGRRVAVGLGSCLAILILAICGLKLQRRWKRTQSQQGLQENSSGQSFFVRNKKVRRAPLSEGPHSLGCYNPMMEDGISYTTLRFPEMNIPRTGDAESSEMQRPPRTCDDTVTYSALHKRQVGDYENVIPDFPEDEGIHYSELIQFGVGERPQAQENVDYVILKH
Method: (§1) CD22 sequences lacking various of the seven immunoglobulin-like domains of the major CD22 isoform (CD22beta) were cloned and transformed into cells for stable expression. For example, CD22 variants lacking domain 1 (Δ1), domain 2 (Δ2), or domains 3 and 4 (Δ3,4) were cloned, transformed into CHO cells, and expressed on the cells. Control cells expressed CD22beta. Deletions were performed using Stratagene QuikChange XL™ reagent kit. Deletion of domain 1 was performed by deletion of amino acids 22-138; deletion of domain 2 was performed by deletion of amino acids 139-242; and deleted domains 3 and 4 were available as the minor isoform CD22alpha (deletion of amino acids 241-417). All amino acid numbers refer to the numbering of full length precursor CD22beta by Wilson, G. L. et al. (see FIG. 1 in Wilson, G. L. et al., J. Exp. Med. 173:137-146 (1991)). FIG. 14 is a diagram of the deleted domains. Binding was determined by flow cytometry using an isotype control. […] Binding of 5E8.1.8 was detected using biotinylated goat anti-mouse IgG plus streptavidin PE.

[2] = target: T2, CD22 variant lacking domain 1 (Δ1), expressed on CHO cells (human, UniProt P20273 139-847); assay: as above
T2 construct: Membrane protein on stably transformed CHO cells; Numbering of full length precursor CD22beta (Wilson et al. 1991); also called CD22 lacking domain 1
T2 chain: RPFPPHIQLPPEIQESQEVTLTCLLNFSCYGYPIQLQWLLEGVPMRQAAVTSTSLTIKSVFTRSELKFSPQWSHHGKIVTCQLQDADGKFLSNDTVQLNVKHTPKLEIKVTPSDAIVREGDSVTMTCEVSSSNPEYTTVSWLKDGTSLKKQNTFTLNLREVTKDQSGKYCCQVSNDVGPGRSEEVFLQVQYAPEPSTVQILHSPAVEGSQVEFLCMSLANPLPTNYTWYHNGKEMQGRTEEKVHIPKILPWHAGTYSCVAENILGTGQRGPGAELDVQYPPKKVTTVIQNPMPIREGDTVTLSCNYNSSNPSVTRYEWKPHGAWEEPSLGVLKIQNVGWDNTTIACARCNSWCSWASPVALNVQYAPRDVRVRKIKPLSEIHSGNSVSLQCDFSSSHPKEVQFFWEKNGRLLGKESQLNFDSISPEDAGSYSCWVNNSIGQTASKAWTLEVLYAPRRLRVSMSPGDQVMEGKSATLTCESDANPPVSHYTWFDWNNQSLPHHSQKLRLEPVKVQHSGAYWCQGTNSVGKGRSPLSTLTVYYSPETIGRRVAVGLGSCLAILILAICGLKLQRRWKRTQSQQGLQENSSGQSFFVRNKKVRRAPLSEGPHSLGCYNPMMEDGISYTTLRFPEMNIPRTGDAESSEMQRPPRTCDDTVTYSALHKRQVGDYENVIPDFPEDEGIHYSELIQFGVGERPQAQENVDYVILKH
Method: as §1

binding result [1]: no binding
binding result [2]: no binding
B1: murine anti-human CD22 10F4.4.1 monoclonal antibody (antibody, V domains shown)
VH: QVQLQQSGPELVKPGASVKISCKASGYEFSRSWMNWVKQRPGQGREWIGRIYPGDGDTNYSGKFKGKATLTADKSSSTAYMQLSSLTSVDSAVYFCARDGSSWDWYFDVWGAGTTVTVSS
VL: DILMTQTPLSLPVSLGDQASISCRSSQSIVHSNGNTFLEWYLQKPGQSPKLLIYKVSNRFSGVPDRFSGSGSGTDFTLKISRVEAEDLGVYYCFQGSQFPYTFGGGTKVEIK
notes: Murine hybridoma antibody (ATCC PTA-7621); also called mu 10F4; Mu 10F4.4.1
